In publication doi:10.1101/787937:

How the values were obtained:
YTHDC1 YTH domain [1] = target: T1, YTHDC1 YTH domain (human, UniProt Q96MU7 345-509); experiment: X-ray crystallography
YTHDC1 YTH domain [2] = target: T1, YTHDC1 YTH domain; experiment: ITC

Binder | binding result (YTHDC1 YTH domain [1]) | Kd (YTHDC1 YTH domain [2])
GACU (ssRNA, m6A at position 2) [G(m6A)CU] | binds | –
GAC (ssRNA, m6A at position 2) [G(m6A)C] | binds | –
GGACU (ssRNA, m6A at position 3) [GG(m6A)CU] | – | 500 nM
GGAC (ssRNA, m6A at position 3) [GG(m6A)C] | binds | –
ACU (ssRNA, m6A at position 1) [(m6A)CU] | binds | –
